IntAct's records for PubMed 37100772

B1: Nucleoprotein (Human coronavirus 229E), P15130 (parent)
chain: MATVKWADASEPQRGRQGRIPYSLYSPLLVDSEQPWKVIPRNLVPINKKDKNKLIGYWNVQKRFRTRKGKRVDLSPKLHFYYLGTGPHKDAKFRERVEGVVWVAVDGAKTEPTGYGVRRKNSEPEIPHFNQKLPNGVTVVEEPDSRAPSRSQSRSQSRGRGESKPQSRNPSSDRNHNSQDDIMKAVAAALKSLGFDKPQEKDKKSAKTGTPKPSRNQSPASSQTSAKSLARSQSSETKEQKHEMQKPRWKRQPNDDVTSNVTQCFGPRDLDHNFGSAGVVANGVKAKGYPQFAELVPSTAAMLFDSHIVSKESGNTVVLTFTTRVTVPKDHPHLGKFLEELNAFTREMQQHPLLNPSALEFNPSQTSPATAEPVRDEVSIETDIIDEVN

Variants of: B1
Settings: with pabp1_human PABPC1, P11940
Chain of pabp1_human PABPC1, P11940 (P11940 whole entry): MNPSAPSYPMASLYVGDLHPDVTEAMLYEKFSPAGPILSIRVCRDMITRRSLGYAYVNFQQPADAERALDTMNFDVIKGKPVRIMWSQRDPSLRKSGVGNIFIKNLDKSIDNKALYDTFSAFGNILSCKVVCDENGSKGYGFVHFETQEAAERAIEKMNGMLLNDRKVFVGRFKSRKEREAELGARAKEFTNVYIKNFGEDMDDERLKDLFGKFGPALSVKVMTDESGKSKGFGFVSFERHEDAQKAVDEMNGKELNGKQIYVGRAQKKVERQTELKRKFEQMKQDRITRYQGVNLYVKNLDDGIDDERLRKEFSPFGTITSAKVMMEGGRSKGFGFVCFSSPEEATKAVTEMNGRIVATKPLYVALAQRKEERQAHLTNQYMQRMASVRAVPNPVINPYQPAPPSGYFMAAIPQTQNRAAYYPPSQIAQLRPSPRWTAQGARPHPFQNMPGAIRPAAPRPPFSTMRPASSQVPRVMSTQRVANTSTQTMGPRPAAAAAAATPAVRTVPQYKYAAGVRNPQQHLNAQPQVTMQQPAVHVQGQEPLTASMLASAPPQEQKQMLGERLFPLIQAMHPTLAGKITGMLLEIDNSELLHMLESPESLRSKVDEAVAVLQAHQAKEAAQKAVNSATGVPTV

Q: L354A;N355G;P356G;A358G;F361A;N362A;P363G was tested. Which “effect of a mutation on the interaction” value did it give?
A: disrupting interaction strength
